± gives the uncertainty stated by the source.
B1: Homeobox protein cut-like 1, residues 941 to 1008; numbered along this chain, P39880 (parent)
chain: QEVDTIELTRQVKEKLAKNGICQRIFGEKVLGLSQGSVSDMLSRPKPWSKLTQKGREPFIRMQLWLNG

Variants of: B1
Assay: abundance fitness (aPCA) (normalised: wild type 0, dead -1); higher = more abundant; growth selection in yeast, the domain comes from the species named
Conditions: Homo sapiens
For M62Y, the abundance fitness was -0.959 ± 0.13. Work on M62A yielded an abundance fitness of -0.141 ± 0.065. Work on M62R yielded an abundance fitness of -0.855 ± 0.077. Variant M62P has an abundance fitness of -0.93 ± 0.11. Work on T9R yielded an abundance fitness of -0.212 ± 0.049. T9W showed an abundance fitness of -0.197 ± 0.074. Work on T9S yielded an abundance fitness of -0.149 ± 0.053. T9C gave an abundance fitness of -0.087 ± 0.093. For T9I, the abundance fitness was -0.113 ± 0.086. T9A showed an abundance fitness of 0.026 ± 0.063. R24P showed an abundance fitness of -0.559 ± 0.082. For R24I, the abundance fitness was -0.29 ± 0.12. R24C gave an abundance fitness of -0.22 ± 0.074. Variant R24N has an abundance fitness of 0.005 ± 0.14. L42H gave an abundance fitness of -0.184 ± 0.084. In the case of L42G, the abundance fitness is reported as -0.275 ± 0.053. L42A showed an abundance fitness of -0.324 ± 0.052. In the case of L42M, the abundance fitness is reported as -0.215 ± 0.089. L42F showed an abundance fitness of -0.158 ± 0.071. L42N gave an abundance fitness of -0.405 ± 0.077. For L42R, the abundance fitness was -0.224 ± 0.052. Variant P58A has an abundance fitness of -0.102 ± 0.072. For P58N, the abundance fitness was 0.025 ± 0.089. In the case of P58W, the abundance fitness is reported as -0.007 ± 0.083. Work on P58V yielded an abundance fitness of -0.014 ± 0.06. Variant N67Q has an abundance fitness of -0.088 ± 0.1. N67C gave an abundance fitness of -0.193 ± 0.092. Variant N67Y has an abundance fitness of -0.197 ± 0.085. Variant N67L has an abundance fitness of -0.128 ± 0.063. Work on N67P yielded an abundance fitness of -0.758 ± 0.12. With N67I the abundance fitness was -0.326 ± 0.095. N67K gave an abundance fitness of 0.045 ± 0.068. In the case of N67G, the abundance fitness is reported as -0.04 ± 0.098. For N67D, the abundance fitness was -0.21 ± 0.11. N67M gave an abundance fitness of -0.186 ± 0.12. With L64K the abundance fitness was 0.158 ± 0.064. With L64F the abundance fitness was -0.326 ± 0.099. L64G showed an abundance fitness of -0.074 ± 0.06. With L64E the abundance fitness was 0.185 ± 0.057. Work on L64A yielded an abundance fitness of 0.087 ± 0.06. With W65C the abundance fitness was -0.718 ± 0.12. With W65K the abundance fitness was -0.715 ± 0.088. W65M gave an abundance fitness of -0.744 ± 0.08. In the case of W65E, the abundance fitness is reported as -0.968 ± 0.12. Work on W65Q yielded an abundance fitness of -1.24 ± 0.21. For W65F, the abundance fitness was -0.326 ± 0.095. W65N gave an abundance fitness of -1.45 ± 0.3. In the case of W65P, the abundance fitness is reported as -1.22 ± 0.15. With K54I the abundance fitness was -0.192 ± 0.13. With V3D the abundance fitness was -0.174 ± 0.094. With V3W the abundance fitness was -0.528 ± 0.085. For V3F, the abundance fitness was -0.063 ± 0.073. Work on V3K yielded an abundance fitness of -0.136 ± 0.098. Work on T52G yielded an abundance fitness of -0.216 ± 0.056. Variant T52I has an abundance fitness of -0.009 ± 0.088. With T52C the abundance fitness was -0.111 ± 0.086. K50S showed an abundance fitness of -0.04 ± 0.055. K50F showed an abundance fitness of -0.141 ± 0.091. In the case of K50G, the abundance fitness is reported as -0.194 ± 0.06. With K50D the abundance fitness was 0.041 ± 0.12. With K50N the abundance fitness was -0.221 ± 0.088. K50E gave an abundance fitness of 0.022 ± 0.064. Work on K50H yielded an abundance fitness of -0.184 ± 0.093. N19V showed an abundance fitness of 0.023 ± 0.05. With N19T the abundance fitness was 0.034 ± 0.062. Work on R56K yielded an abundance fitness of -0.045 ± 0.1. With R56E the abundance fitness was -1.2 ± 0.17. Variant R56M has an abundance fitness of -0.238 ± 0.067. R56I showed an abundance fitness of -0.6 ± 0.091. With R56N the abundance fitness was -1.16 ± 0.23. R56Q gave an abundance fitness of -0.287 ± 0.084. For R56P, the abundance fitness was -1.06 ± 0.15. R56L gave an abundance fitness of -0.418 ± 0.061. In the case of V30A, the abundance fitness is reported as -0.253 ± 0.26. With P47R the abundance fitness was -0.134 ± 0.052. Variant P47H has an abundance fitness of -0.133 ± 0.11. Variant P47N has an abundance fitness of -0.371 ± 0.11. In the case of P47G, the abundance fitness is reported as -0.123 ± 0.074. For P47W, the abundance fitness was 0.056 ± 0.055. With L33Q the abundance fitness was -0.232 ± 0.089. L33I gave an abundance fitness of 0.144 ± 0.088. Work on L33H yielded an abundance fitness of -0.174 ± 0.083. Variant L33T has an abundance fitness of -0.06 ± 0.061. In the case of L33Y, the abundance fitness is reported as -0.229 ± 0.078. With L33E the abundance fitness was -0.262 ± 0.081. For L33G, the abundance fitness was -0.219 ± 0.061. Work on L33K yielded an abundance fitness of -0.092 ± 0.07. L31P showed an abundance fitness of -0.233 ± 0.073. In the case of L31G, the abundance fitness is reported as -0.256 ± 0.057. L31A showed an abundance fitness of -0.273 ± 0.051. G36L showed an abundance fitness of -0.025 ± 0.046. With G36R the abundance fitness was 0.033 ± 0.047. Work on G36K yielded an abundance fitness of -0.026 ± 0.09. In the case of G36I, the abundance fitness is reported as -0.078 ± 0.1. Work on G36C yielded an abundance fitness of -0.02 ± 0.066. Variant G36Q has an abundance fitness of 0.039 ± 0.078. For A17V, the abundance fitness was -0.087 ± 0.047. For A17L, the abundance fitness was -0.148 ± 0.05. Work on K29T yielded an abundance fitness of 0.027 ± 0.068. K29L gave an abundance fitness of -0.516 ± 0.051. For K29V, the abundance fitness was -0.195 ± 0.061. With K29H the abundance fitness was -0.121 ± 0.08. In the case of K29G, the abundance fitness is reported as -0.17 ± 0.063. In the case of E14P, the abundance fitness is reported as 0.005 ± 0.07. With E14S the abundance fitness was -0.143 ± 0.062. E14T showed an abundance fitness of -0.121 ± 0.076. E14W showed an abundance fitness of -0.221 ± 0.053. Work on E14N yielded an abundance fitness of -0.063 ± 0.21. E14K showed an abundance fitness of -0.111 ± 0.094. In the case of E14G, the abundance fitness is reported as -0.156 ± 0.064. Variant E14F has an abundance fitness of -0.443 ± 0.12. Variant E14Q has an abundance fitness of -0.14 ± 0.083. G27D gave an abundance fitness of -0.545 ± 0.094. G27K showed an abundance fitness of -0.137 ± 0.088. In the case of G27S, the abundance fitness is reported as -0.008 ± 0.053. In the case of G27W, the abundance fitness is reported as -0.569 ± 0.099. In the case of G27I, the abundance fitness is reported as -0.067 ± 0.11. Variant G27A has an abundance fitness of 0.1 ± 0.054. G27T showed an abundance fitness of -0.201 ± 0.067. In the case of G27F, the abundance fitness is reported as -0.086 ± 0.1. I25A showed an abundance fitness of -0.002 ± 0.062. I25Y showed an abundance fitness of 0.014 ± 0.086. Work on I25V yielded an abundance fitness of -0.008 ± 0.051. Work on I25S yielded an abundance fitness of -0.03 ± 0.059. I6R gave an abundance fitness of -0.053 ± 0.045. With I6S the abundance fitness was -0.259 ± 0.053. Variant I6A has an abundance fitness of 0.076 ± 0.062. Work on S49E yielded an abundance fitness of -0.151 ± 0.083. Work on S49W yielded an abundance fitness of -0.198 ± 0.071. With S49Y the abundance fitness was -0.255 ± 0.077. With S49Q the abundance fitness was -0.169 ± 0.093. With S49G the abundance fitness was -0.133 ± 0.069. Variant S49K has an abundance fitness of 0.029 ± 0.074. For S49T, the abundance fitness was -0.131 ± 0.06. With S49V the abundance fitness was -0.177 ± 0.058. Work on K13E yielded an abundance fitness of -0.208 ± 0.074. K13P gave an abundance fitness of -0.159 ± 0.059. Variant K13Y has an abundance fitness of -0.475 ± 0.11. In the case of K13M, the abundance fitness is reported as -0.278 ± 0.073. With D40V the abundance fitness was -0.339 ± 0.053. In the case of D40P, the abundance fitness is reported as -0.102 ± 0.071. Variant D40C has an abundance fitness of -0.209 ± 0.093. D40A gave an abundance fitness of -0.158 ± 0.055. Work on D40Y yielded an abundance fitness of -0.212 ± 0.061. S39W gave an abundance fitness of -0.28 ± 0.072. For S39T, the abundance fitness was 0.003 ± 0.059. In the case of S39F, the abundance fitness is reported as -0.156 ± 0.095. For S39G, the abundance fitness was 0.019 ± 0.06. With S39I the abundance fitness was 0.037 ± 0.1. I21D showed an abundance fitness of -0.559 ± 0.17. I21H gave an abundance fitness of -0.425 ± 0.11. Variant I21K has an abundance fitness of -0.381 ± 0.09. For I21A, the abundance fitness was -0.489 ± 0.089. Variant I21P has an abundance fitness of -0.319 ± 0.071. For I21C, the abundance fitness was -0.419 ± 0.1. For Q35H, the abundance fitness was -0.024 ± 0.11. With P45I the abundance fitness was -0.147 ± 0.088. P45W gave an abundance fitness of -0.108 ± 0.072. With P45R the abundance fitness was -0.184 ± 0.051. P45K gave an abundance fitness of -0.161 ± 0.089. With P45D the abundance fitness was -0.456 ± 0.11. P45T showed an abundance fitness of -0.224 ± 0.067. Work on P45H yielded an abundance fitness of -0.124 ± 0.079. Work on G55A yielded an abundance fitness of 0.016 ± 0.054. For G55L, the abundance fitness was -0.045 ± 0.044. In the case of G55K, the abundance fitness is reported as -0.163 ± 0.078. Variant G55Y has an abundance fitness of -0.104 ± 0.1.

— the Human Domainome abundance scans (Beltran et al. 2025)
